In article PMC3303126 (Nature structural & molecular biology, 2012) one finds binding result and Kd data, which are given here for four molecules.

For series [1], the target named is T1, His-Thp1 (full-length Thp1, coexpressed with Sem1) (S. cerevisiae, UniProt Q08231 1-455).
T1 sequence: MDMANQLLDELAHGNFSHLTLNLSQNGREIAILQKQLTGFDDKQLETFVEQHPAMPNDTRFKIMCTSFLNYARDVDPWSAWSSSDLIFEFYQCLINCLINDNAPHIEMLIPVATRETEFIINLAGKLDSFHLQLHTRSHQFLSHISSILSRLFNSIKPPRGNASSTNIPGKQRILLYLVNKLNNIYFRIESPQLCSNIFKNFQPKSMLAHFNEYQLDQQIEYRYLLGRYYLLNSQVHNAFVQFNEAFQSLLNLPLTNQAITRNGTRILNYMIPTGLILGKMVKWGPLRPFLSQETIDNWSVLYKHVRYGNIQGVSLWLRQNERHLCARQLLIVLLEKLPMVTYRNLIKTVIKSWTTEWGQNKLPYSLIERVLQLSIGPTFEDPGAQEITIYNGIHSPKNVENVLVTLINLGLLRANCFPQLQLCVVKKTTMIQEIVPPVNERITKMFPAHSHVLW
Briefly: crystal structure.

Series [2] concerns the target T1, His-Thp1 (full-length Thp1, coexpressed …). Kind of series: pull-down.
For series [3], the target named is T2, ProtA-Sac3 250-563;Thp1;Sem1 (Saccharomyces cerevisiae;Saccharomyces …, UniProt P46674;Q08231;O94742 250-563;1-455;1-89, ||).
T2 sequence 1: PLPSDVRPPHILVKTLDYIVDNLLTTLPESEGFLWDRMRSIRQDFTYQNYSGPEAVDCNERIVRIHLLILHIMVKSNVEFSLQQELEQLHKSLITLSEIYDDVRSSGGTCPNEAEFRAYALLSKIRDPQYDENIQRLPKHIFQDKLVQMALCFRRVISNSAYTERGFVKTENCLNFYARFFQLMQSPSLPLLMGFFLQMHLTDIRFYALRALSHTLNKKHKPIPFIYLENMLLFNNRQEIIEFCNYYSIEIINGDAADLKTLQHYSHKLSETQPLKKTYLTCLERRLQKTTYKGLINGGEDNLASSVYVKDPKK
T2 sequence 2: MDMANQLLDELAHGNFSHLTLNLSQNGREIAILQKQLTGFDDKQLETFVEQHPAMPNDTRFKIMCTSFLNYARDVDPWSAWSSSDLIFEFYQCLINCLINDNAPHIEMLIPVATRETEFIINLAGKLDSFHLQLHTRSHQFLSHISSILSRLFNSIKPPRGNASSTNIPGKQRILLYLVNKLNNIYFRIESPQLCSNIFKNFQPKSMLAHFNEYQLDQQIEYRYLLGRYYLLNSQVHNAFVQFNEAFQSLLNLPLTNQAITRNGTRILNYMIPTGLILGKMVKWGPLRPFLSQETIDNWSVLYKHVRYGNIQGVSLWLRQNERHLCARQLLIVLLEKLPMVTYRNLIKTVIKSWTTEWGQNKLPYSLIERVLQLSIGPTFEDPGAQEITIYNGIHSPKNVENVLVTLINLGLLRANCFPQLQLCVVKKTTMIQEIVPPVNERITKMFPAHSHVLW
T2 sequence 3: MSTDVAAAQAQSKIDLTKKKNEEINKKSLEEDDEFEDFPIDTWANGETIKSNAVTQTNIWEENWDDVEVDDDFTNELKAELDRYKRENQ
Kind of series: EMSA.

Series [4] deals with T3, Sac3-M (Sac3 250-563);Thp1;Sem1 (Saccharomyces cerevisiae;Saccharomyces …, UniProt P46674;Q08231;O94742 250-563;1-455;1-89, ||).
T3 sequence 1: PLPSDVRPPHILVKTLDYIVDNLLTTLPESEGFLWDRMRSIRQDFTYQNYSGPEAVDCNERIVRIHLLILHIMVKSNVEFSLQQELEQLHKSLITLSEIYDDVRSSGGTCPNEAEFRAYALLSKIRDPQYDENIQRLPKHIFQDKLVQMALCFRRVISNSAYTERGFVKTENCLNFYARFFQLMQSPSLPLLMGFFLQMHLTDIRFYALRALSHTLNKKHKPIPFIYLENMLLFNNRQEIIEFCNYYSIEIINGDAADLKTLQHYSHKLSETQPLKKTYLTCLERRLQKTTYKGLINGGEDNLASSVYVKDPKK
T3 sequence 2: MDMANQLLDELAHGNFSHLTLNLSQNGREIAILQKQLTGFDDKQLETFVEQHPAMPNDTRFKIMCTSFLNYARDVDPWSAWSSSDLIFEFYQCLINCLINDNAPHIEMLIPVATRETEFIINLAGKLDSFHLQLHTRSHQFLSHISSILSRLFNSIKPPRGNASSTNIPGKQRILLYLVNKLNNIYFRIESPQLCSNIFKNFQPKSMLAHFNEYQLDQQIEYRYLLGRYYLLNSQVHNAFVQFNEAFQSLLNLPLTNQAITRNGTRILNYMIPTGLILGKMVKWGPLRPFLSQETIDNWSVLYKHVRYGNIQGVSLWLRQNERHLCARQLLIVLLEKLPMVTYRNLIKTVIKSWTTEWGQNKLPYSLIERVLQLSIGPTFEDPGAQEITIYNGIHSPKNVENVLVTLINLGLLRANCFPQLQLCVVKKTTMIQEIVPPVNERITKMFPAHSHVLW
T3 sequence 3: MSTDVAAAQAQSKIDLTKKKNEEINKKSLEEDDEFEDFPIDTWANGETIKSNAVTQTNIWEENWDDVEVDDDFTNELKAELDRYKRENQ
Briefly: EMSA.

In series [5] the target is T3, Sac3-M (Sac3 250-563);Thp1;Sem1. Kind of series: EMSA. This is another data set of the same source.

B1: Sac3 residues 250-563 (Sac3-M), as crystallised (domain or fragment)
chain: PLPSDVRPPHILVKTLDYIVDNLLTTLPESEGFLWDRMRSIRQDFTYQNYSGPEAVDCNERIVRIHLLILHIMVKSNVEFSLQQELEQLHKSLITLSEIYDDVRSSGGTCPNEAEFRAYALLSKIRDPQYDENIQRLPKHIFQDKLVQMALCFRRVISNSAYTERGFVKTENCLNFYARFFQLMQSPSLPLLMGFFLQMHLTDIRFYALRALSHTLNKKHKPIPFIYLENMLLFNNRQEIIEFCNYYSIEIINGDAADLKTLQHYSHKLSETQPLKKTYLTCLERRLQKTTYKGLINGGEDNLASSVYVKDPKK
In the case of B1, the binding result in series [1] is listed as “binds”.

B2: Sem1 (full length, bacterially expressed) (natural protein)
chain: MSTDVAAAQAQSKIDLTKKKNEEINKKSLEEDDEFEDFPIDTWANGETIKSNAVTQTNIWEENWDDVEVDDDFTNELKAELDRYKRENQ
Turning to B2, in series [2], the binding result is recorded as “binds”.
As for AAAAAAAAAAAAAAAAAAAAAAAAA (ssRNA) [polyA25 RNA], the binding result in series [3] and in series [4] was “binds” each time.
Molecule UUUUUUUUUUUUUUUUUUUUUUUUU (ssRNA) [polyU25 RNA] gave a dissociation constant (Kd) in series [5] of 175 nM.
